Laboratory results from patent publication US20230338465A1 (VITRUVIAE, published 2023).
Several values for one entry are separate records, joined by “and”; a condition that tells them apart may be missing. Identical values can stand only once. Like-named read-outs stand apart in the source and are kept apart here.

T1: Zika Virus Envelope Protein (Zika virus)
T1 chain: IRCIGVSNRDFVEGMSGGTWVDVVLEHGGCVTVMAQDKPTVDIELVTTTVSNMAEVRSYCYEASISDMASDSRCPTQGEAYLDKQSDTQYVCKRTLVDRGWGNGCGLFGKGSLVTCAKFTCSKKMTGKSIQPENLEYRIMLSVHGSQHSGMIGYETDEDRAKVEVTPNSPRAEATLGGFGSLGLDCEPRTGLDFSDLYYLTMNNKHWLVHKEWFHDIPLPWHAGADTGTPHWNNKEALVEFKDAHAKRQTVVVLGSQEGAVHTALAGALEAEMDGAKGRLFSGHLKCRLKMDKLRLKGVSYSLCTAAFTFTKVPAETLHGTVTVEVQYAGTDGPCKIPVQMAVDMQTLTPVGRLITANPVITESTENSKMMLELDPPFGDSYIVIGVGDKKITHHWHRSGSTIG

B1: VP025-CT (co-transfected product of genes TM-G4-A-DC and CT-G4-B-DC, heterodimer mixture) (Fc fusion)
chain 1: SVKVGGEAGPSVTLPCHYSGAVTSMCWNRGSCSLFTCQNGIVWTNGTHVTYRKDTRYKLLGDLSRRDVSLTIENTAVSDSGVYCCRVEHRGWFNDMKITVSLEIVGGGGSGGGGSGGGGSKYGPPCPPCPAPEAAGGPSVFLFPPKPKDTLMISRTPEVTCVVVDVSQEDPEVQFNWYVDGVEVHNAKTKPREEQFNSTYRVVSVLTVLHQDWLNGKEYKCAVSNKGLPSSIEKTISKCKGQPREPQVYTLPPSQEEMTKNQVSLTCLVKGFYPSDIAVEWESNGQPENNYKTTPPVLDSDGSFFLYSRLTVDKSRWQEGNVFSCSVMHEALHNHYTQKSLSLSLGK
chain 2: ERLCHPCPWEWTFFQGNCYFMSNSQRNWHDSITACKEVGAQLVVIKSAEEQNFLQLQSSRSNRFTWMGLSDLNQEGTWQWVDGSPLLPSFKQYWNRGEPNNVGEEDCAEFSGNGWNDDKCNLAKFWICKKSAASCSGGGGSGGGGSGGGGSKYGPPCPPCPAPEAAGGPSVFLFPPKPKDTLMISRTPEVTCVVVDVSQEDPEVQFNWYVDGVEVHNAKTKPREEQFNSTYRVVSVLTVLHQDWLNGKEYKCAVSNKGLPSSIEKTISKCKGQPREPQVYTLPPSQEEMTKNQVSLTCLVKGFYPSDIAVEWESNGQPENNYKTTPPVLDSDGSFLLYSKLTVDKSRWQEGNVFSCSVMHEALHNHYTQKSLSLSLGK
notes: also called VP025-CT (heterodimer mixture)
B2: VP019-F2 (multimer fraction F2 of VP019, V-TIM1-1 with V-IGG4-ADC-A-Fc) (Fc fusion)
chain: B1 chain 1
notes: also called TM-G4-A-DC; VIT-307
B3: VP020 (V-CTLD-1 with V-IGG4-ADC-B-Fc) (Fc fusion)
chain: B1 chain 2
notes: also called CT-G4-B-DC; VIT-308

Assays:
Assay in all cases: ELISA, 2.5 mM CaCl2
Chikungunya Virus E1 = Chikungunya Virus E1 (Chikungunya virus)
[1] = molecular target: T1, Zika Virus Envelope Protein
[2] = molecular target: T1, Zika Virus Envelope Protein

| Binder | EC50 (Chikungunya Virus E1) | EC50 [1] | EC50 [2] |
| --- | --- | --- | --- |
| B1 | 10.2 µg/mL and 122 nM | – | – |
| B2 | – | 1 mg/L | 0.0122 µM |
| B3 | – | 7.4 mg/L | 0.0851 µM |
